Publication PMC3017772, “The CaaX specificities of Arabidopsis protein prenyltransferases explain era1 and ggb phenotypes” (BMC Plant Biology, 2010)

What was measured:
Assay in all cases: radiometric filter prenylation assay, Lineweaver-Burk
Assay type in all cases: biochemical, Arabidopsis thaliana
[1] = substrate: CC(C)=CCC/C(C)=C/CC/C(C)=C/CC/C(C)=C/COP(=O)(O)OP(=O)(O)O; settings: co-substrate GFP-BD-CVIL, 50 mM Hepes pH 7.5, 20 mM MgCl2, 5 mM ZnCl2, 5 mM DTT, 0.1% Zwittergent, 30°C, labelled compound
Source text: (§1) radiometric filter prenylation assay, Lineweaver-Burk on PGGT1 (protein geranylgeranyltransferase type 1; PGGT I; PLP + GGB)

[2] = substrate: CC(C)=CCC/C(C)=C/CC/C(C)=C/CO[P@@](=O)(O)OP(=O)(O)O; settings: co-substrate GFP-BD-CVIL, 50 mM Hepes pH 7.5, 20 mM MgCl2, 5 mM ZnCl2, 5 mM DTT, 0.1% Zwittergent, 30°C, labelled compound
Source text: as §1

[3] = substrate: CC(C)=CCC/C(C)=C/CC/C(C)=C/CC/C(C)=C/COP(=O)(O)OP(=O)(O)O; settings: co-substrate GFP-BD-CVIQ, 50 mM Hepes pH 7.5, 20 mM MgCl2, 5 mM ZnCl2, 5 mM DTT, 0.1% Zwittergent, 30°C, labelled compound
Source text: (§2) radiometric filter prenylation assay, Lineweaver-Burk on PFT (protein farnesyltransferase; PLP + ERA1)

[4] = substrate: CC(C)=CCC/C(C)=C/CC/C(C)=C/CO[P@@](=O)(O)OP(=O)(O)O; settings: co-substrate GFP-BD-CVIQ, 50 mM Hepes pH 7.5, 20 mM MgCl2, 5 mM ZnCl2, 5 mM DTT, 0.1% Zwittergent, 30°C, labelled compound
Source text: as §2

B1: PGGT1 (protein geranylgeranyltransferase type 1; PGGT I; PLP + GGB) (Arabidopsis thaliana) (protein)
chain 1: SETAVSIDSDRSKSEEEDEEEYSPPVQSSPSANFEKDRHLMYLEMMYELLPYHYQSQEINRLTLAHFIISGLHFLGARDRVDKDVVAKWVLSFQAFPTNRVSLKDGEFYGFFGSRSSQFPIDENGDLKHNGSHLASTYCALAILKVIGHDLSTIDSKSLLISMINLQQDDGSFMPIHIGGETDLRFVYCAAAICYMLDSWSGMDKESAKNYILNCQSYDGGFGLIPGSESHGGATYCAIASLRLMGYIGVDLLSNDSSSSIIDPSLLLNWCLQRQANDGGFQGRTNKPSDTCYAFWIGAVLKLIGGDALIDKMALRKFLMSCQSKYGGFSKFPGQLPDLYHSYYGYTAFSLLEEQGLSPLCPELGLPLLAAPGI
chain 2: not shown
notes: alpha/beta heterodimer co-expressed in E. coli Rosetta (pETDuet-1); N-terminal FLAG on PLP, N-terminal 6xHis on GGB (MHHHHHH-SETAVSI from primer), tags kept; Co2+-IMAC purified
With B1 the Km [1] was 0.8 ± 0.1 µM and the Km [2] was 0.6 ± 0.5 µM.

B2: PFT (protein farnesyltransferase; PLP + ERA1) (Arabidopsis thaliana) (protein)
chain 1: PVVTRLIRLKCVGLRLDRSGLNRRICHGGHGESTRRRVMEELSSLTVSQREQFLVENDVFGIYNYFDASDVSTQKYMMEIQRDKQLDYLMKGLRQLGPQFSSLDANRPWLCYWILHSIALLGETVDDELESNAIDFLGRCQGSEGGYGGGPGQLPHLATTYAAVNALVTLGGDKALSSINREKMSCFLRRMKDTSGGFRMHDMGEMDVRACYTAISVASILNIMDDELTQGLGDYILSCQTYEGGIGGEPGSEAHGGYTYCGLAAMILINEVDRLNLDSLMNWAVHRQGVEMGFQGRTNKLVDGCYTFWQAAPCVLLQRLYSTNDHDVHGSSHISEGTNEEHHAHDEDDLEDSDDDDDSDEDNDEDSVNGHRIHHTSTYINRRMQLVFDSLGLQRYVLLCSKIPDGGFRDKPRKPRDFYHTCYCLSGLSVAQHAWLKDEDTPPLTRDIMGGYSNLLEPVQLLHNIVMDQYNEAIEFFFKAA
chain 2: not shown
notes: alpha/beta heterodimer co-expressed in E. coli Rosetta (pETDuet-1); N-terminal FLAG on PLP, N-terminal 6xHis on ERA1 (MHHHHHH-PVVTRLI from primer), tags kept; Co2+-IMAC purified
Work on B2 yielded a Km [3] of 0.7 ± 0.3 µM and a Km [4] of 0.2 ± 0.1 µM.
